Measurements taken from the Immune Epitope Database (IEDB).

What was measured:
Assay in all cases: IEDB peptide-MHC binding, purified MHC/competitive/fluorescence; filed as Kd, often an IC50 or EC50 that approximates it; ≥ and ≤ were set here for values at or beyond the usual limits of such assays
Settings in all cases: source organism: Salmonella enterica subsp. enterica serovar Typhi
[1] = target: HLA-A*01:01
[2] = target: HLA-A*02:03
[3] = target: HLA-A*02:06
[4] = target: HLA-A*03:01
[5] = target: HLA-A*03:19
[6] = target: HLA-A*11:01
[7] = target: HLA-A*25:01
[8] = target: HLA-A*26:01
[9] = target: HLA-A*29:02
[10] = target: HLA-A*30:01
[11] = target: HLA-A*68:23
[12] = target: HLA-A*69:01
[13] = target: HLA-B*08:01
[14] = target: HLA-B*15:01
[15] = target: HLA-B*15:09
[16] = target: HLA-B*15:17
[17] = target: HLA-B*18:01
[18] = target: HLA-B*39:01
[19] = target: HLA-B*40:01
[20] = target: HLA-B*45:06
[21] = target: HLA-B*51:01
[22] = target: HLA-B*57:01
[23] = target: HLA-B*58:01
[24] = target: HLA-C*06:02

Sequence: SVIDHIHYM
- Kd [1]: ≥ 20000 nM
- Kd [2]: 3.1 nM
- Kd [3]: ≤ 1 nM
- Kd [4]: ≥ 20000 nM
- Kd [5]: 982 nM
- Kd [6]: 71.7 nM
- Kd [7]: 13.7 nM
- Kd [8]: 0.28 nM
- Kd [9]: 1.2 nM
- Kd [10]: ≥ 20000 nM
- Kd [11]: 0.2 nM
- Kd [12]: 0.6 nM
- Kd [13]: ≥ 20000 nM
- Kd [14]: 145 nM
- Kd [15]: ≥ 20000 nM
- Kd [16]: 50 nM
- Kd [17]: ≥ 20000 nM
- Kd [18]: 2800 nM
- Kd [19]: ≥ 20000 nM
- Kd [20]: ≥ 5000 nM
- Kd [21]: ≥ 20000 nM
- Kd [22]: 1530 nM
- Kd [23]: 290 nM
- Kd [24]: 26 nM
